Source: the DeepSol protein solubility set

Experiment: soluble on expression in E. coli; label from the status in PepcDB or PDB records
In the case of “MSLYRVFEALDELSAIVEEARGVPMTAGCVVPRGDVLELIDDIKDAIPGELDDAQDVLDARDSMLQDAKTHADSMVSSATTEAESILNHARTEADRILSDAKAQADRMVSEARQHSERMVADAREEAIRIATAAKREYEASVSRAQAECDRLIENGNISYEKAVQEGIKEQQRLVSQNEVVAAANAESTRLVDTAHAEADRLRGECDIYVDNKLAEFEEFLNGTLRSVGRGRHQLRTAAGTHDYAVREGHHHHHH”, the “soluble on expression in E. coli” value is reported as “soluble”. In the case of “MSLSIALIAPYESLATLCRSICQELDLDVSVHTGSMEDGVRIARNLMAEGVDFFISRGLTAQLIREQCPLPVAELEVSAFDIYLCLEPLLRSGKSIGVVGHSDILRKAKGASAALGFTIDFYATAHPGGMGHIMEAARRQGIAAIAGDAVAARTAERYGMEGVLVQNGADSVTNTLQYAVATYSYLTRQATMAGEGHHHHHH”, the “soluble on expression in E. coli” value is reported as “not soluble”. In the case of “GMPKANLEIIRSTYEGSASSNAKHLAEALSEKVEWTEAEGFPYGGTYIGVEAIMENVFSRLGSEWNDYKASVNMYHEVSGKDVIIAEGMYSGVYKDTGKSFEAEFVHVWQLENGKIVKFKQYVDSHLVREAMKS”, the “soluble on expression in E. coli” value is reported as “soluble”. For “MDNIKIIVASDSIGETAELVARAGVSQFNPKQCKHEFLRYPYIESFENVDEVIQVAKDTNAIIVYTLIKPEIKKYMISKVNEHALKSVDIMGPLMELLSNSIEETPYYEPGMVHRLDDAYFKKIDAIEFAVKYDDGKDPKGLPKADIVLLGISRTSKTPLSQYLAHKSYKVMNIPIVPEVTPPDGLFNVDPSKCIALKISEEKLNRIRKERLKQLGLGDKARYATEARIQEELDYFEKLVDKIGCPVIDVSDKAIEETANDIIHFIEQNKSKLEHHHHHH”, the “soluble on expression in E. coli” value was “soluble”. With “MDPKPINEGMLLEDHDHGMPEEEEITEDDMNGIHNIEEDTRTISEIAMELHHPNKSQVLLDQERFLPIANVVRIMKTQMDPQAKLAKDAKECAQECVSEFISFIASEAAEICNITKRKTITADDLLTAMEATGFDNYAEPMRIFLQKYRQAHKITGPIHRTHPDYVRPPQFQMDPFVRPLFFDTEQGRRCTETQYVINGSEIVKNAPLGEEWNEQTGTLNTRADGYYMEEPMEPMPMEEVEIEEHEEIIEQDSLGAIALEQQGQMQIYVDPKTKQHFAAKETPNGMELYPLIIQDTPLQLENVSGPNQFVMNMPDGRAIPHGMGQEEPQPVSSSSVMRKIGQNPSSYAQQHHHVSHVEQHDDVEYEEEEEVDQVEEDTVPVPIAPRPAATRVQPKRTPTKRKK” the “soluble on expression in E. coli” value was “not soluble”. With “MGFLKILRKQRAREREMRILILGLDNAGKTTLMKKFLDEPTDTIEPTLGFDIKTVHFKDFQLNLWDVGGQKSLRSYWKNYFESTDALIWVVDSSDRERLLQCSEELKKLLGEERLAGASLLVLANKSDLPGAIDVNSIAQVLDLHSIKSHHWKIFSCCALSGDRLVQAMTWLCDDVGSRLFILD” the “soluble on expression in E. coli” value was “not soluble”. With “MSLGGDRFYDLISAVHKSIRGSAPDAALYWYARIITAGGDPLYVARRLLAIASEDIGNADPRAMQVALSAWDCFTRVGAAEGERAIAQAIVYLAVAPKSNAVYQAFNAAKALAKQAPDYDVPRHLTNAPTQLLKELGNHAEYRYAHDEPNAYAAGENYFPEPLKDTRFYFPGARGMEIKIKEKLDWLRNLDQQSENIREGHHHHHH” the “soluble on expression in E. coli” value was “soluble”. With “MGRVAEKVIIIGNNFGNDKSAVTVLFTDNMEKENKAAVVGVDNTTIYCMAPRQAEGFNKITVKVNDQTVVADETFKYSVSENVSTIAGDFVQADGAGKDGSLAEATFGQMFGVACIDEQSGIVGQAWNNNSVRYISIDEDAVITIQSGPVVGKVAVSNDKTLAYGATINGANTVYVYKKSQAWVPSRLSDISSGTDVWAVALNGDNQWLYYVTANGRLGRIEVDNPTHNEILFEHNDFSGGPFAYIAYSAFEDCFYVTTDKNKILKVWVKEDGTHAYEQINQNNTGTTDGFLADEAKFQYLRGLTIDEDGNIFVCQGDNSHVIRKIAYDENMEKRYVTTVLGTSTVHGTDDGSPDIALFNGPQDISYDGNGGYWIAMRYEPALRKYSIELEHHHHHH” the “soluble on expression in E. coli” value was “soluble”. With “MEIIYPPLVEEGLKYYLETTQQSLDKSTFYRSMVERGIITETGLPTQQAIENGLVKDYYEDQGLSFDDFLRIYPIFEEYDEELFQCIDGYWEIPVDMKENLASQLESGELTFEDAQQIQAYLEDR” the “soluble on expression in E. coli” value was “not soluble”. With “MDPFRFQVEARAGRARVGRLFTPHGAVETPLFMPVGTAGSVKGLMPKDLEAIGSQVLLTNTYHLLLRPGPERVRALGGLHGFAGWKGPWLTDSGGFQVMSLGHMRRIDEEGVVFQSHLDGRLIKLTPERSIAVQEALGADLIMAFDECPPYPSPREYLEASLERTLRWLERSLKAKTRPDQALFGIAQGGTDPELRRRSTLETIRFDLPGYAIGGLAVGEPKEAMFAMVELSTRLLPEDRPRYLMGVGHPEDLVAAMGLGVDLFDCVYPTRTGRFGSALVPEGRLNLKNARFLEDRRPLEEGCDCYTCQTFGRAYLAHLVRAGEMLGGILLSLHNLRHLHRLTEAARQAIREGRYGDFAREFARRRFGREVPPWFREALAAGGHG” the “soluble on expression in E. coli” value was “soluble”. With “MWHIFERFVNEYERWFLVHRFAYLSELQAVKCLLPEGRGVEIGVGTGRFAVPLKIKIGVEPSERMAEIARKRGVFVLKGTAENLPLKDESFDFALMVTTICFVDDPERALKEAYRILKKGGYLIVGIVDRESFLGREYEKNKEKSVFYKNARFFSTEELMDLMRKAGFEEFKVVQTLFKHPSELSEIEPVKEGYGEGAFVVIRGTKK” the “soluble on expression in E. coli” value was “soluble”. With “MSLAQKVKLSTIAETLGLSTATVSLALRDSPLVAAVTRDKIKEQARALGYIYNRRAASLRTSRSGIIGVVVHDIMNPFYGEILKAIEAELDRDKQTFILSNHYDSVEKQRDFIETLLQLGGDGVIMSPAIGTPPQDIQLAEDNGMPAILIARSIEGLDVPIFRGDDAYGISLATNHLIGLGHRCIAMVGGTDQTSTGRDRYQGYVNALRKANIEVDPDLRIPGPRSKQGGFEAAVHLLSLPQKPTAVVCWNDLVAIGMMNGIARAGLVPGVDISVTGYDDLEEASIATPALTTVWNGQAEVGRSAARALLDKLSGSHEPDGIHLIKPEMRIRQSTGPLRVTEGHHHHHH” the “soluble on expression in E. coli” value was “soluble”. In the case of “MSLSELIDNRAQRVRTLKGIIKRLHAGDAPDEVRNSLKELVCQTDYSEVMAMEQELIADGMPVEEIQGMCDLHSQVTREVLVQLAPAPVPPGHPVDTFRRENKALRESAARLQKAMNGVLETADDGDASARLLEWRQALNELQDVDKHYQRKEHLLSTCLERHGITGPSKVMWGKDDQIRELLKDTSVALRQSDTSVAELKVLAATTGAAAAGAVHEMIYKEEQILLPICLERFTADEWAEIWASSPRYGWCLVEPRQGYKPFTSEAAGRASVDGGVSLPTGALALEQLIAIFSTLPVDLTFVDANDRVAFFSEGPSRVFARSRTIVGRMVQNCHPPRSVDVVERILSDFREGRQNVAEFWLQFVGRFVHIRYFAVRSEDGRYLGTLEVTQDVGPIRALEGERRLLEYAEPSEGHHHHHH”, the “soluble on expression in E. coli” value is reported as “soluble”. With “MEKSGGRIVMDEIRSFEKAHLFDLGHPLLNRIADSFVKAAGVSFDSNNVGPPSEITGNKKHRFPNLRGESSKSLDALVKNTGKESLQWGLAAGLYSGITYGMTEVRGGAHDWRNSAVAGALTGAAMAMTTSERTSHEQVVQSALTGAAISTAANLLSSVF” the “soluble on expression in E. coli” value was “soluble”. For “GSHMTAEADTSSELAKKSKEVFRKEMSQFIVQCLNPYRKPDCKVGRITTTEDFKHLARKLTHGVMNKELKYCKNPEDLECNENVKHKTKEYIKKYMQKFGAVYKPKEDTELE”, the “soluble on expression in E. coli” value was “soluble”. In the case of “MRKKLKAVLFDMDGVLFNSMPYHSEAWHQVMKTHGLDLSREEAYMHEGRTGASTINIVFQRELGKEATQEEIESIYHEKSILFNSYPEAERMPGAWELLQKVKSEGLTPMVVTGSGQLSLLERLEHNFPGMFHKELMVTAFDVKYGKPNPEPYLMALKKGGLKADEAVVIENAPLGVEAGHKAGIFTIAVNTGPLDGQVLLDAGADLLFPSMQTLCDSWDTIML”, the “soluble on expression in E. coli” value is reported as “not soluble”. For “MGSDKIHHHHHHMKELKIIFIPGWGMEEGVWTLVLPYFKEYSVQCINWRNVKEQSEFAGRIIDVAKDENVILVGWSLGALAAVQAHKKIQTKGIVLIGGTPKFTNTSDYTSGWNALHVERLKKNVARKKEDTLKRFYENMFTKDELKENTSFEEIALNFKGDSIQSLQLGLDYLIETDMRNELIDVKVPLLLLHGEQDVICPLSAAHSMTENANAKLKVVSEAGHALCVTNFEYCANEIIQFVEGIRHDQQNVTTKTI”, the “soluble on expression in E. coli” value was “not soluble”. For “MGSDKIHHHHHHMIMKVVVKVGSNLLVGSSGLRKSYIAELCREVARLKSQGHEISIITSGARAAGFTYLGKGKRTQDLHIKQALCAVGQVQLMKVYENAFDFYGIKIAQILLTRDTFSNRKRYLNLRNTLIGLSEFDVVPIVNENDTVATEEITLGDNDTLAAMFSIAWDADFLVLFTTVDGVIDENGKLVERFDESVKLKDMGKSSWGTGGIRSKIESALMASRCGVKATICSGNDVSNLTRFVKGEPVGTVFEPQGRLKAKKAWIAFLSEPAGKIYVNKGAEEALKSGNSLLPVGVTGVEGTFDVGDVVEIVNEEGELVGRGIVNYSSSDLEKIAGHKSSDLKKILGYEGNKVVVHIDNMWVA”, the “soluble on expression in E. coli” value was “not soluble”. For “MAKIKLPIVTINAKGGAQYVVEGVEAVNALTQLENYPERGIRIKVDGKMTVITEGCLCSAAVTGEVEVDVPEIVCEEVECEPISNILPNPKNPTDPGENSKPEEKAGEK”, the “soluble on expression in E. coli” value was “not soluble”. In the case of “MKYKDLRDFIAMLEQQGKLKRVAHPVSPHLEMTEIADRVLRAEGPALLFENPVKPDGTRYDYPVLANLFGTPERVAMGMGADSVSKLREIGQTLAYLKEPEPPKGIKDAFSKLPLLKDIWSMAPNVVKNAPCQEIVWEGEDVDLYQLPIQHCWPEDVAPLVTWGLTVTRGPHKKRQNLGIYRQQLIGKNKLVMRWLSHRGGALDYQEFRKLNPDTPYPVAVVLGCDPSTILGAVTPVPDTLSEYQFAGLLRGSRTELVKCIGSDLQVPARAEIVLEGVIHPNETALEGPYGDHTGYYNEQGHFPVFTVERITMRENPIYHSTYTGKPPDEPAVLGVALNEVFVPLLQKQFSEITDFYLPPEGCSYRMAVVSMKKQYAGHAKRVMTGCWSFLRQFMYTKFIIVVDDDVNVRDWKEVIWAVTTRMDPVRDTVLVENTPIDYLDFASPVSGLGGKMGLDATSKWPGETDREWGRVIKKDPAVTVKIDGIWGKLGLLEHHHHHH”, the “soluble on expression in E. coli” value is reported as “not soluble”. For “AAQEKVVKLKIVQTSDVHGNYYPYNFITRKDWQGSLARIYAFVEKEREQYKENLILLDNGDILQGQPTAYYYNYIDTVSPHLCAEMMNYMKYDAGNMGNHDVETGRAVFDRWINTCDFPVLGANIIDISTGEPHLPPYKVMERDGVKIVILGMITPAIPAWLSENLWKGLRFDDMEETARKWMKIIREKENPDLMIGLFHAGQEAFKMSGKYNENASLSVAKNVPGFDIVLMGHDHARECKKVMNVAGDSVLVIDPASNGIVLSNIDVTLKLKDGKVRSKDIKGVLTETKDYGISEDFMKNFAPQYDTVRNFVSK”, the “soluble on expression in E. coli” value was “not soluble”. For “MSLLTPEQIAAAQKANIESLFGLTTKAFEGVEKLIELNLQVVKSTLAESQENVQRALSVKDAQELLALQASLTQPIAEKVLAYGRHVYEIASATQAEFAKVAEAQYEEQNRKVQALVDNVAKNAPAGSETAVAALKSAINAANTTYETVQK”, the “soluble on expression in E. coli” value was “not soluble”. In the case of “MGSDKIHHHHHHMAWHKLGRVYCADGFADWAQHSFMTPVPVQMSADVIRLYGGMRDDAGISRIGWVDLDAHNPLRVIAVCDAPALDLGEPGMFDDNGVILGDVIRTSEAELRMYYVGFQLVEKAKFLAFTGVAISDASGTRFDRVFPTPVLDRAPEALFINALHSIAQTETGFRAWISCGQRWQDINGRIYPQYNCWTVPSEDGLHFDMRDAVKIMDVNEAEYRIGRPRANRLADGSFELRVTSDTFDKHYSSHLAHSKDGIVFQRSDEVELPRGAPGDWDAEMTCYPARIDTPTGRSYLFYNGNNMGETGVGVAEWQAEA”, the “soluble on expression in E. coli” value is reported as “not soluble”.
